Test results from article PMC11480844.

B1: H2-Kb / B6 (parent)
chain 1: GDSVTQTEGLVTVTEGLPVKLNCTYQTTYLTIAFFWYVQYLNEAPQVLLKSSTDNKRTEHQGFHATLHKSSSSFHLQKSSAQLSDSALYYCALSLGNAGAKLTFGGGTRLTVRP
chain 2: EAAVTQSPRNKVTVTGGNVTLSCRQTNSHNYMYWYRQDTGHGLRLIHYSYGAGNLQIGDVPDGYKATRTTQEDFFLLLELASPSQTSLYFCASSDGMISSSYEQYFGPGTRLTVL
chain 3: not shown
chain 4: IQKTPQIQVYSRHPPENGKPNILNCYVTQFHPPHIEIQMLKNGKKIPKVEMSDMSFSKDWSFYILAHTEFTPTETDTYACRVKHDSMAEPKTVYWDRDM
chain 5: SIINFEKL

Variants of: B1
Assay: % of reporter cells activated (NFAT-GFP), raw; also: test concentration or dose not given here
Parameters: unit not given here
Conditions: with B6

Variant	ratio to parent
chain 5 K7H	0.926
chain 5 K7M	0.765
chain 5 K7E	1.11
chain 5 K7Q	1.09
chain 5 K7P	0.758
chain 5 K7G	0.913
chain 5 K7L	0.785
chain 5 K7S	0.644
chain 5 K7V	0.872
chain 5 K7D	0.819
chain 5 K7C	1
chain 5 K7I	0.899
chain 5 K7W	0.638
chain 5 K7F	0.812
chain 5 K7A	0.832
chain 5 K7N	0.664
chain 5 K7Y	0.738
chain 5 K7R	0.477

Variant	ratio to parent
chain 5 K7T	0.94
chain 5 I3V	0.886
chain 5 I3Y	1.23
chain 5 I3W	1.19
chain 5 L8R	0.812
chain 5 L8N	0.765
chain 5 L8K	0.819
chain 5 L8H	0.859
chain 5 L8C	0.725
chain 5 L8P	0.671
chain 5 L8D	0.456
chain 5 L8G	1.09
chain 5 L8Q	0.738
chain 5 L8A	0.53
chain 5 L8M	0.718
chain 5 L8F	0.523
chain 5 L8E	0.329
chain 5 L8I	0.758

Results, then the variant that gave them:

ratio to parent	Variant
0.953	chain 5 S1P
1.01	chain 5 S1W
1	chain 5 S1Y
1.01	chain 5 S1G
1.18	chain 5 S1F
1.12	chain 5 S1E
0.926	chain 5 S1Q
1.05	chain 5 S1C
1.07	chain 5 S1T
0.973	chain 5 S1M
0.919	chain 5 S1I
0.993	chain 5 S1K
1.1	chain 5 S1A
1.13	chain 5 S1D
0.872	chain 5 S1N
0.611	chain 5 S1R
1.12	chain 5 S1H
1.13	chain 5 S1L
0.826	chain 5 S1V
0.913	chain 5 N4Y
1.87	chain 5 N4F
0.926	chain 5 N4K

ratio to parent	Variant
0.913	chain 5 N4E
0.993	chain 5 N4Q
1.25	chain 5 N4C
1.29	chain 5 N4D
2.76	chain 5 N4M
1.17	chain 5 N4A
1.13	chain 5 N4P
1.03	chain 5 N4S
0.973	chain 5 N4H
0.832	chain 5 N4W
1	chain 5 N4R
0.893	chain 5 N4V
2.7	chain 5 N4L
0.752	chain 5 N4G
1.1	chain 5 N4T
1.05	chain 5 N4I
0.53	chain 5 L8S
0.805	chain 5 L8Y
0.403	chain 5 L8V
0.55	chain 5 L8T
0.604	chain 5 L8W
